Results taken from US7803757B2, “Peptides based on the sequence of human lactoferrin and their use” (PharmaSurgics in Sweden AB, priority 1998, dated 2010).

How the values were obtained:
[1] = system: C. albicans (ATCC 64549); assay: microbe, parasite or virus in culture; conditions: C. albicans ATCC 64549, 2×10^5 cells/ml, BHI diluted 1/100
Description: In the examples, the minimal microbicidal concentrations (MMC) and minimal inhibitory concentrations (MIC) were determined as follows, unless otherwise specified in the examples. Bacterial or fungal strains were cultured in BHI medium over night at 37° C. A volume of the culture was transferred to a new tube with BHI and incubated for two more hours. Thereafter the cells were spun down and the pellet was suspended in BHI medium diluted 1/100 (1% BHI). The concentration of bacterial or fungal cells was spectrophotometrically determined at 650 nm. The microbial concentrations were also determined by viable counts. Peptides serially diluted in 1% BHI by twofold or tenfold steps were added in triplicate to the wells of a microtiterplate (200 μl per well). The bacterial or fungal cell solutions were added in 10 μl volumes to give a final concentration of approximately 1-5×10^5 cells per ml in the well. The microplate was incubated at 37° C. in a humid chamber for two hours. […] The microplate was incubated for another 20 hours at 37° C. and thereafter analysed spectrophotometrically at 650 nm in a microplate reader (Emax, Molecular Devices, USA). […] The MIC value was defined as the concentration giving no increase in the absorbance value above the background level after 20 hours of incubation. […]

[2] = system: E. coli O14; assay: bactericidal activity, incubation with E. coli O14 (Example 3, exp. I and III); type: cell-based
Description: (§1) Human lactoferrin (hLF), peptide 3, and peptide 4, respectively, were incubated with two different strains of E. coli, E. coli O14 (experiment I) and O6K5 (experiment II), in diluted growth medium ( 1/100 BHI—brain heart infusion) for 2 hours. The peptides were also incubated with E. coli O14 in 0.05 mM KCl (pH 7) without any growth medium (experiment III). Different concentrations of the peptides were tested.
(§2) After the incubation, samples were taken for bacterial plating. Serial dilutions of five- and fourfold steps were used in experiments I and II, respectively, and of twofold steps in experiment III.
(§3) The concentrations of the different peptides required for killing 100% (experiments I and II) or 90% (experiment III) of the bacteria are given in table 2.

[3] = system: LPS-induced IL-6 response in a monocytic cell line (THP-1); assay: inhibition of LPS-induced IL-6 response in THP-1 cells (Example 5); type: cell-based; conditions: IL-6 response in THP-1 cells, agent added 30 minutes after LPS
Description: In this example an in vitro test was performed to study the anti-inflammatory activity of the peptides according to the invention. More precisely, the inhibitory effect of the peptides according to the invention on the LPS-induced IL-6 response in a monocytic cell line (THP-1) was studied and compared to the effect of human lactoferrin by use of the method described by I. Mattsby-Baltzer et al., Pediatr. Res. 40:257-262, 1996. The IL-6 response in the THP-1 cells was induced by addition of LPS. hLF, peptide 3 and peptide 4, respectively, were added 30 minutes after LPS.

[4] = system: Candida albicans; assay: fungicidal activity against Candida albicans strains (Example 4); type: cell-based
Description: (§4) In this example the fungicidal activity of the peptides according to the invention was tested and compared to the fungicidal activity of human lactoferrin. Different concentrations of hLF, peptide 3 and peptide 4 were incubated with different strains of Candida albicans and Candida krusei during 1-2 hours at 37° C. in 0.05 mM KCl at pH 7.0 at two different occasions—experiment I and II, respectively. After incubation samples were taken for plating on Saboroud plates.

[5] = system: Candida albicans; assay: fungicidal activity against Candida albicans, comparison with EP-A-0 629 347 peptides (Example 7); type: cell-based; conditions: C. albicans, I (tenfold steps)
Description: In this example an in vitro test was performed to compare the bactericidal and fungicidal activity of the peptides according to the invention with peptides described in EP-A-0 629 347. The peptide according to the invention used was peptide 4, and the peptides according to EP-A-0 629 347 called Morinaga 10, Morinaga 11, Morinaga 12, and Morinaga 13.
The peptides were incubated with E. coli O14 and Candida albicans. Two concentrations of C. albicans yeast cells were tested, 5·10^6 and 5·10^3 per ml. Different concentrations of the peptides were tested.
After the incubation, samples were taken for bacterial plating. Serial dilutions of tenfold steps were used in the experiments marked with I in table 5 and of twofold steps in the experiments marked with II.

[6] = system: Candida krusei; assay: fungicidal activity against Candida krusei strains (Example 4); type: cell-based; conditions: Exp. I
Description: as §4

[7] = system: E. coli O6K5; assay: urinary tract infection in mice, bacteria (CFU) in kidney (Example 6); type: in vivo; conditions: Exp II, mouse strain C3H/Tif, 500 μg per mouse orally 30 minutes after instillation, 24 hours
Description: E. coli O6K5 was instilled into the urinary bladder of mice. 30 minutes after instillation the different agents specified in table 5 were administered orally in an amount of 500 μg per mouse and 24 hours after instillation the number of bacteria (CFU) present in bladder and in kidney was determined.
The control group consisted of 10 animals in experiment I and of 23 animals in experiment II. The animals in the control groups were given tap water instead of peptide or hLF.

[8] = system: E. coli O6K5; assay: bactericidal activity, incubation with E. coli O6K5 (Example 3, exp. II); type: cell-based; conditions: Exp. II: 100% killing, E. coli O6K5, 1/100 BHI, 2 hours
Description: as §1, §2, §3

B1: human lactoferrin (protein, UniProt P02788 20-710, looked up)
Lactotransferrin: GRRRSVQWCAVSQPEATKCFQWQRNMRKVRGPPVSCIKRDSPIQCIQAIAENRADAVTLDGGFIYEAGLAPYKLRPVAAEVYGTERQPRTHYYAVAVVKKGGSFQLNELQGLKSCHTGLRRTAGWNVPIGTLRPFLNWTGPPEPIEAAVARFFSASCVPGADKGQFPNLCRLCAGTGENKCAFSSQEPYFSYSGAFKCLRDGAGDVAFIRESTVFEDLSDEAERDEYELLCPDNTRKPVDKFKDCHLARVPSHAVVARSVNGKEDAIWNLLRQAQEKFGKDKSPKFQLFGSPSGQKDLLFKDSAIGFSRVPPRIDSGLYLGSGYFTAIQNLRKSEEEVAARRARVVWCAVGEQELRKCNQWSGLSEGSVTCSSASTTEDCIALVLKGEADAMSLDGGYVYTAGKCGLVPVLAENYKSQQSSDPDPNCVDRPVEGYLAVAVVRRSDTSLTWNSVKGKKSCHTAVDRTAGWNIPMGLLFNQTGSCKFDEYFSQSCAPGSDPRSNLCALCIGDEQGENKCVPNSNERYYGYTGAFRCLAENAGDVAFVKDVTVLQNTDGNNNEAWAKDLKLADFALLCLDGKRKPVTEARSCHLAMAPNHAVVSRMDKVERLKQVLLHQQAKFGRNGSDCPDKFCLFQSETKNLLFNDNTECLARLHGKTTYEKYLGPQYVAGITNLKKCSTSPLLEACEFLRK
MIC [1]: 1000 µg/mL | MMC99% [1]: >1000 µg/mL | Concentration of agent for 100%/90% killing ([2]; Exp. I: 100% killing, E. coli O14, 1/100 BHI, 2 hours): 400 µg/mL | Concentration of agent for 100%/90% killing ([2]; Exp. III: 90% killing, E. coli O14, 0.05 mM KCl (pH 7) without growth medium): >4000 µg/mL | % inhibition of LPS response [3]: 15% | Concentration of agent for 99% killing ([4]; Exp. I, C. albicans ATCC 64549, 0.05 mM KCl pH 7.0, 1-2 hours 37° C.): >50 µg/mL | Concentration of agent for 99% killing ([4]; Exp. I, C. albicans CCUG 90028, 0.05 mM KCl pH 7.0): >50 µg/mL | Concentration of agent for 99% killing ([4]; Exp. II, C. albicans ATCC 64549, 0.05 mM KCl pH 7.0): >200 µg/mL | Concentration of agent for 99% killing ([4]; Exp. II, C. albicans CCUG 599, 0.05 mM KCl pH 7.0): >200 µg/mL | Concentration of agent for 99% killing ([4]; Exp. II, C. albicans CCUG 1759, 0.05 mM KCl pH 7.0): >200 µg/mL | Concentration of agent for 100% killing ([5]; 5 · 10^3 yeast cells per ml): >2000 µg/mL | Concentration of agent for 100% killing ([5]; 5 · 10^6 yeast cells per ml): >1000 µg/mL | Concentration of agent for 99% killing ([6]; C. krusei CCUG 969, 0.05 mM KCl pH 7.0): 25 µg/mL | Concentration of agent for 99% killing ([6]; C. krusei CCUG 35849, 0.05 mM KCl pH 7.0): 12.5 µg/mL | Statistical comparison of treatment group with control group of the number of bacteria, CFU, present in kidney (p, Mann-Whitney) [7]: p = 0.006 | Concentration of agent for 100%/90% killing [8]: 2000 µg/mL
